Laboratory results reported in paper PMC5282554, “The intervening domain from MeCP2 enhances the DNA affinity of the methyl binding domain and provides an independent DNA interaction site”.

Columns and labels:
Details in all cases: protein: recombinant; tags: His-tag removed (PreScission); blunt
[1] = target: MeCP2 NTD-MBD (UniProt P51608 1-162); assay: ITC; pH 7; ITC: Tris 50 mM, pH 7, 20 °C (also 15 and 17.5 °C; Pipes or phosphate 50 mM, pH 7), no added NaCl unless stated; protein 3-5 uM in cell, dsDNA 50 uM titrant
[2] = target: MeCP2 MBD (UniProt P51608 78-162); assay: as above
[3] = target: T1, MeCP2 NTD-MBD-ID (UniProt P51608 1-206); assay: ITC; pH 7; ID site of two-site model; ITC: Tris 50 mM, pH 7, 20 °C (also 15 and 17.5 °C; Pipes or phosphate 50 mM, pH 7), no added NaCl unless stated; protein 3-5 uM in cell, dsDNA 50 uM titrant
[4] = target: T1, MeCP2 NTD-MBD-ID; assay: ITC; pH 7; MBD site of two-site model; ITC: Tris 50 mM, pH 7, 20 °C (also 15 and 17.5 °C; Pipes or phosphate 50 mM, pH 7), no added NaCl unless stated; protein 3-5 uM in cell, dsDNA 50 uM titrant

B1: BDNF promoter IV 45 bp unmethylated (dsDNA)
DNA 1: GCCATGCCCTGGAACGGAACTCTCCTAATAAAAGATGTATCATTT
DNA 2: AAATGATACATCTTTTATTAGGAGAGTTCCGTTCCAGGGCATGGC
Kd [1]: 210 nM
Kd [2]: 450 nM
Kd [3]: 250 nM
Kd [4]: 1.9 nM

B2: BDNF promoter IV 45 bp mCpG (dsDNA)
DNA 1: B1 DNA 1
DNA 2: B1 DNA 2
modifications: 5-methylcytosine at C15 of strand 1 and C30 of strand 2 (symmetric mCpG)
Kd [1]: 90 nM
Kd [2]: 240 nM
Kd [3]: 62 nM
Kd [4]: 0.56 nM
